B1: DNA repair protein XRCC4 (Homo sapiens), Q13426 (parent)
chain: MERKISRIHLVSEPSITHFLQVSWEKTLESGFVITLTDGHSAWTGTVSESEISQEADDMAMEKGKYVGELRKALLSGAGPADVYTFNFSKESCYFFFEKNLKDVSFRLGSFNLEKVENPAEVIRELICYCLDTIAENQAKNEHLQKENERLLRDWNDVQGRFEKCVSAKEALETDLYKRFILVLNEKKTKIRSLHNKLLNAAQEREKDIKQEGETAICSEMTADRDPVYDESTDEESENQTDLSGLASAAVSKDDSIISSLDVTDIAPSRKRRQRMQRNLGTEPKMAPQENQLQEKENSRPDSSLPETSKKEHISAENMSLETLRNSSPEDLFDEI

This test covers variants of B1. The settings on record: with NHEJ1, Q9H9Q4-1.
Sequence of NHEJ1, Q9H9Q4-1 (Q9H9Q4 whole entry): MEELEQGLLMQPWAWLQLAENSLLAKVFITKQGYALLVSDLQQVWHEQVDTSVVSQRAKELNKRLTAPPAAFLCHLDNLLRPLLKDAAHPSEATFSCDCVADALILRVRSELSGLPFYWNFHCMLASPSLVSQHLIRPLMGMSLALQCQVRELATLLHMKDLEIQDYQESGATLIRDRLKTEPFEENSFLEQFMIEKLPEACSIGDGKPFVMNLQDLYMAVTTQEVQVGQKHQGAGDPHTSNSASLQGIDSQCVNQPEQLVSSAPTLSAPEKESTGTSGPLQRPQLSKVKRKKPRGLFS
As for M61R, the “effect of a mutation on the interaction” value is reported as “disrupting interaction strength”.

Consider D58R, for which the “effect of a mutation on the interaction” value is “disrupting interaction strength”.

Take F106A: the “effect of a mutation on the interaction” value is “decreasing interaction strength”.

In the case of F106Y, the “effect of a mutation on the interaction” value is listed as “decreasing interaction strength”.

Consider F106E, for which the “effect of a mutation on the interaction” value was “disrupting interaction strength”.

K65E: the “effect of a mutation on the interaction” value is recorded as “decreasing interaction strength”.

For the variant E55R, the “effect of a mutation on the interaction” value is reported as “disrupting interaction strength”.
